Drawing on PMC7567440, this text covers Kd for 1 substance.

pKd: −log10 of the molar value.

This test deals with pigeon ovomucoid (pigeon). The experiment in a line: BLI; BLItz system; biotinylated POVO; recombinant flagellin. In general terms: In BLI a coated tip is dipped into the sample, and binding shifts an interference pattern.

By pKd is commonly meant the Kd on a negative log10 scale, so that one unit is a factor of ten. As to “recombinant flagellin of Bacillus cereus HN001 (WR52_08290) (natural protein)”, the pKd is 8.43.
